Ends that are not written are not given here.

For one test, the target named is GLP-1 receptor. Put plainly: cell-based or functional assay.
As to HVEGTFTSDVSSYLEEKAAKEFIAWLVKGRG [Val^8-Glu^22-Lys^23-GLP-1(7-37)OH], the “GLP-1 Receptor Activation” value is 1.43 fold of GLP-1(7-37)OH.

As to HVEGTYTSDVSSYLEGQAAKEFIAWLVKGRG [Val^8-Tyr^12-GLP-1(7-37)OH], the “GLP-1 Receptor Activation” value was 0.81 fold of GLP-1(7-37)OH.

With HVEGTFTSDYSSYLEGQAAKEFIAWLVKGRG [Val^8-Tyr^16-GLP-1(7-37)OH], the “GLP-1 Receptor Activation” value was 1.18 fold of GLP-1(7-37)OH.

Turning to HVEGTFTSDVSSYLEGQAAKEFIAWLKVGRG [Val^8-Lys^33-Val^34-GLP-1(7-37)OH], the “GLP-1 Receptor Activation” value was 0.08 fold of GLP-1(7-37)OH.

For HVEGTFTSDVSSYLEGQAAKEFIAWLVGKRG [Val^8-Gly^34-Lys^35-GLP-1(7-37)OH], the “GLP-1 Receptor Activation” value is 0.34 fold of GLP-1(7-37)OH.

Turning to HVEGTFTSDVSSYLEGQAAKEFIAWLVKGGP-NH2 [Val^8-Gly^36-Pro^37-GLP-1(7-37)NH2], the “GLP-1 Receptor Activation” value is 0.53 fold of GLP-1(7-37)OH.

Another test has as its target GLP-1 receptor. Briefly: cell-based or functional assay. The source holds these as a separate data set.
As for HVEGTYTSDVSSYLEGQAAKEFIAWLVKGR-NH2 [Val^8-Tyr^12-GLP-1(7-36)NH2], the “GLP-1 Receptor Activation” value is 0.52 fold of GLP-1(7-37)OH.

Take HVEGTFTSDWSSYLEEQAVKEFIAWLIKGRG [Val^8-Trp^16-Glu^22-Val^25-Ile^33-GLP-1(7-37)OH]: the “GLP-1 Receptor Activation” value was 2.35 fold of GLP-1(7-37)OH.

As for HVEGTFTSDVSSYFEEQAAKEFIAWLVKGRG [Val^8-Phe^20-Glu^22-GLP-1(7-37)OH], the “GLP-1 Receptor Activation” value was 1.27 fold of GLP-1(7-37)OH.

Turning to HGEGTFTSDVSSYLEGQAAKEFIAWLVKGRG [Gly^8-GLP-1(7-37)OH], the “GLP-1 Receptor Activation” value was 0.8 fold of GLP-1(7-37)OH.

On to HVEGTFTSDVSSFLEEQAAKEFIAWLVKGRG [Val^8-Phe^19-Glu^22-GLP-1(7-37)OH], for which the “GLP-1 Receptor Activation” value was 0.7 fold of GLP-1(7-37)OH.

With HVEGTFTSDVSIYLEEQAAKEFIAWLVKGRG [Val^8-Ile^18-Glu^22-GLP-1(7-37)OH], the “GLP-1 Receptor Activation” value is 1.88 fold of GLP-1(7-37)OH.

As to HVEGTWTSDVSSYLEEQAAKEFIAWLVKGRG [Val^8-Trp^12-Glu^22-GLP-1(7-37)OH], the “GLP-1 Receptor Activation” value is 0.8 fold of GLP-1(7-37)OH.

HVEGTFTSDVSKYLEEQAAKEFIAWLVKGRG [Val^8-Lys^18-Glu^22-GLP-1(7-37)OH]: the “GLP-1 Receptor Activation” value was 1.18 fold of GLP-1(7-37)OH.

Turning to HVEGTFTSDVSSYLEEQALKEFIAWLVKGRG [Val^8-Glu^22-Leu^25-GLP-1(7-37)OH], the “GLP-1 Receptor Activation” value is 1.32 fold of GLP-1(7-37)OH.

For HVEGTFTSDLSSYLEEQAAKEFIAWLVKGRG [Val^8-Leu^16-Glu^22-GLP-1(7-37)OH], the “GLP-1 Receptor Activation” value is 2.02 fold of GLP-1(7-37)OH.

For the molecule HVEGTFTSDISSYLEEQAAKEFIAWLVKGRG [Val^8-Ile^16-Glu^22-GLP-1(7-37)OH], the “GLP-1 Receptor Activation” value was 1.55 fold of GLP-1(7-37)OH.

Turning to HVEGTYTSDVSSYLEGQAAKEFIAWLVKGRG [Val^8-Tyr^12-GLP-1(7-37)OH], the “GLP-1 Receptor Activation” value is 0.8 fold of GLP-1(7-37)OH.

On to HVEGTFTSDVSSYLEEQAIKEFIAWLVKGRG [Val^8-Glu^22-Ile^25-GLP-1(7-37)OH], for which the “GLP-1 Receptor Activation” value is 1.46 fold of GLP-1(7-37)OH.

Turning to HVEGTYTSDVSSYLEEQAAKEFIAWLVKGRG [Val^8-Tyr^12-Glu^22-GLP-1(7-37)OH], the “GLP-1 Receptor Activation” value was 1.27 fold of GLP-1(7-37)OH.

Regarding HVEGTFTSDVSSYLEEQAAKIFIAWLVKGRG [Val^8-Glu^22-Ile^27-GLP-1(7-37)OH], the “GLP-1 Receptor Activation” value was 0.94 fold of GLP-1(7-37)OH.

For the molecule HVEGTFTSDYSSWLEEQAAKEFIAWLVKGRG [Val^8-Tyr^16-Trp^19-Glu^22-GLP-1(7-37)OH], the “GLP-1 Receptor Activation” value is 1.64 fold of GLP-1(7-37)OH.

In the case of HVEGTFTSDVSSYLEGQALKEFIAWLVKGRG [Val^8-Leu^25-GLP-1(7-37)OH], the “GLP-1 Receptor Activation” value is 0.24 fold of GLP-1(7-37)OH.

Take HVEGTFTSDCSSYLEGQAAKEFIAWLVKGRG [Val^8-Cys^16-Lys^26-GLP-1(7-37)OH]: the “GLP-1 Receptor Activation” value was 1.97 fold of GLP-1(7-37)OH.

On to HVEGTFTSDYSSYLEGQAAKEFIAWLVKGRG [Val^8-Tyr^16-GLP-1(7-37)OH], for which the “GLP-1 Receptor Activation” value was 1.18 fold of GLP-1(7-37)OH.

Turning to HVEGTWTSDVSSYLEGQAAKEFIAWLVKGRG [Val^8-Trp^12-GLP-1(7-37)OH], the “GLP-1 Receptor Activation” value was 0.52 fold of GLP-1(7-37)OH.

As for HVEGTFTSDLSSYLEGQAAKEFIAWLVKGRG [Val^8-Leu^16-GLP-1(7-37)OH], the “GLP-1 Receptor Activation” value was 0.52 fold of GLP-1(7-37)OH.

Turning to HVEGTFTSDFSSYLEEQAAKEFIAWLVKGRG [Val^8-Phe^16-Glu^22-GLP-1(7-37)OH], the “GLP-1 Receptor Activation” value is 1.08 fold of GLP-1(7-37)OH.

Take HVEGTFTSDVSFYLEEQAAKEFIAWLVKGRG [Val^8-Phe^18-Glu^22-GLP-1(7-37)OH]: the “GLP-1 Receptor Activation” value is 0.94 fold of GLP-1(7-37)OH.

In the case of HVEGTFTSDVSSWLEEQAAKEFIAWLVKGRG [Val^8-Trp^19-Glu^22-GLP-1(7-37)OH], the “GLP-1 Receptor Activation” value is 1.5 fold of GLP-1(7-37)OH.

In the case of HVEGTYTSDYSSYLEGQAAKEFIAWLVKGRG [Val^8-Tyr^12-Tyr^16-GLP-1(7-37)OH], the “GLP-1 Receptor Activation” value was 0.7 fold of GLP-1(7-37)OH.

In the case of HVEGTFTSDYSSFLEGQAAKEFIAWLVKGRG [Val^8-Tyr^16-Phe^19-GLP-1(7-37)OH], the “GLP-1 Receptor Activation” value is 1.32 fold of GLP-1(7-37)OH.

Regarding HVDGIFTSDYSSYLEEQAAKEFIAWLVKGRG [Val^8-Asp^9-Ile^11-Tyr^16-Glu^22-GLP-1(7-37)OH], the “GLP-1 Receptor Activation” value was 2.02 fold of GLP-1(7-37)OH.

The next test addresses GLP-1 receptor. Briefly: cell-based or functional assay. The source holds these as a separate data set.
In the case of HVEGTFTSDVSSYLEGQAAKEFIAWLVKGRG [Val^8-GLP-1(7-37)OH], the “In Vitro Activity (% of Val^8-GLP-1(7-37)OH)” value was 1 % of Val^8-GLP-1(7-37)OH.

As for HVEGTFTSDLSKQMEEEAVRLFIAWLVKGRG, the “In Vitro Activity (% of Val^8-GLP-1(7-37)OH)” value was 2.86 % of Val^8-GLP-1(7-37)OH.

HGEGTFTSDLSKQMEEEAVRLFIAWLVKGRG: the “In Vitro Activity (% of Val^8-GLP-1(7-37)OH)” value was 3.25 % of Val^8-GLP-1(7-37)OH.

In the case of HGEGTFTSDLSSYLEEEAVRLFIEWLKNGGP-NH2 [HGEGTFTSDLSSYLEEEAVRLFIEWLKNGGP-NH2], the “In Vitro Activity (% of Val^8-GLP-1(7-37)OH)” value is 5.07 % of Val^8-GLP-1(7-37)OH.

With HVEGTFTSDLSKQMEGQAAKEFIAWLVKGRG, the “In Vitro Activity (% of Val^8-GLP-1(7-37)OH)” value is 0.11 % of Val^8-GLP-1(7-37)OH.

Regarding HVEGTFTSDVSSYLEGQAAKEFIEWLKNGGP-NH2 [HVEGTFTSDVSSYLEGQAAKEFIEWLKNGGP-NH2], the “In Vitro Activity (% of Val^8-GLP-1(7-37)OH)” value was 2.36 % of Val^8-GLP-1(7-37)OH.

HAEGTFTSDVSKQLEEEAAKEFIAWLVKGRG: the “In Vitro Activity (% of Val^8-GLP-1(7-37)OH)” value is 2.15 % of Val^8-GLP-1(7-37)OH.

Consider HGEGTFTSDLSKQMEEEAAKEFIEWLKNGGP-NH2 [HGEGTFTSDLSKQMEEEAAKEFIEWLKNGGP-NH2], for which the “In Vitro Activity (% of Val^8-GLP-1(7-37)OH)” value is 2.8 % of Val^8-GLP-1(7-37)OH.

With HAEGTFTSDVSSYLEGQAAKEFIAWLVKGRPSSGAPPPS-NH2 [HAEGTFTSDVSSYLEGQAAKEFIAWLVKGRPSSGAPPPS-NH2], the “In Vitro Activity (% of Val^8-GLP-1(7-37)OH)” value is 3.3 % of Val^8-GLP-1(7-37)OH.

HGEGTFTSDVSSYLEEEAVRLFIEWLKNGGP-NH2 [HGEGTFTSDVSSYLEEEAVRLFIEWLKNGGP-NH2]: the “In Vitro Activity (% of Val^8-GLP-1(7-37)OH)” value is 5.4 % of Val^8-GLP-1(7-37)OH.

On to HGEGTFTSDLSKQMEGQAAKEFIEWLKNGGP-NH2 [HGEGTFTSDLSKQMEGQAAKEFIEWLKNGGP-NH2], for which the “In Vitro Activity (% of Val^8-GLP-1(7-37)OH)” value was 1.44 % of Val^8-GLP-1(7-37)OH.

As for HVEGTFTSDVSSYLEEEAVRLFIAWLVKGRG, the “In Vitro Activity (% of Val^8-GLP-1(7-37)OH)” value was 1.47 % of Val^8-GLP-1(7-37)OH.

Source of the values: US20040053370A1 (Eli Lilly, published 2004).
